Measurements: the supplement of paper PMC9112550, “Optimization of the antimicrobial peptide Bac7 by deep mutational scanning” (BMC Biology, 2022)

System: Escherichia coli TOP10
Experiment: shrunken log2 fold change of peptide-encoding DNA abundance (4.5 h post-induction vs induction); higher = less antimicrobial activity (less host growth inhibition)
Conditions: time post-induction: 4.5 h; library: site-saturation at positions 5, 18, 19, 20
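Further: peptides expressed intracellularly from a pBAD plasmid library in pooled LB shake-flask culture, induced with 0.3% L-arabinose, DNA abundance read by NGS, three biological replicates, DESeq2 with apeglm shrinkage.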

Sequence	shrunken log2 fold change
RRIRQRPPRLPRPRPRPNHRPRP	-0.0657
RRIRQRPPRLPRPRPRPNIKPRP	-0.558
RRIRQRPPRLPRPRPRPNISPRP	-0.565
RRIRQRPPRLPRPRPRPNKEPRP	0.00917
RRIRQRPPRLPRPRPRPNKNPRP	-0.335
RRIRQRPPRLPRPRPRPNPEPRP	0.0266
RRIRQRPPRLPRPRPRPNQEPRP	-0.0578
RRIRQRPPRLPRPRPRPNQQPRP	-0.0802
RRIRQRPPRLPRPRPRPNRHPRP	0.115
RRIRQRPPRLPRPRPRPNSGPRP	-0.0316
RRIRQRPPRLPRPRPRPNTCPRP	-1.35
RRIRQRPPRLPRPRPRPNTHPRP	-0.203
RRIRQRPPRLPRPRPRPNTMPRP	0.12
RRIRQRPPRLPRPRPRPNVAPRP	0.236
RRIRQRPPRLPRPRPRPNVQPRP	0.031
RRIRQRPPRLPRPRPRPNVYPRP	-0.222
RRIRQRPPRLPRPRPRPNYFPRP	-0.149
RRIRQRPPRLPRPRPRPPAHPRP	0.0556
RRIRQRPPRLPRPRPRPPARPRP	0.23
RRIRQRPPRLPRPRPRPPGDPRP	0.194
RRIRQRPPRLPRPRPRPPIYPRP	-0.129
RRIRQRPPRLPRPRPRPPKFPRP	0.117
RRIRQRPPRLPRPRPRPPKYPRP	-0.313
RRIRQRPPRLPRPRPRPPLGPRP	0.547
RRIRQRPPRLPRPRPRPPLKPRP	-0.0174

Sequence	shrunken log2 fold change
RRIRQRPPRLPRPRPRPPLSPRP	0.0729
RRIRQRPPRLPRPRPRPPLWPRP	0.494
RRIRQRPPRLPRPRPRPPMAPRP	0.0822
RRIRQRPPRLPRPRPRPPMVPRP	-0.0885
RRIRQRPPRLPRPRPRPPNRPRP	-0.131
RRIRQRPPRLPRPRPRPPQHPRP	0.718
RRIRQRPPRLPRPRPRPPRDPRP	1.25
RRIRQRPPRLPRPRPRPPSPPRP	0.426
RRIRQRPPRLPRPRPRPPTNPRP	0.201
RRIRQRPPRLPRPRPRPPVKPRP	0.0851
RRIRQRPPRLPRPRPRPPWAPRP	0.577
RRIRQRPPRLPRPRPRPPWHPRP	0.187
RRIRQRPPRLPRPRPRPPWMPRP	0.172
RRIRQRPPRLPRPRPRPPYPPRP	-0.0407
RRIRQRPPRLPRPRPRPPYTPRP	-0.552
RRIRQRPPRLPRPRPRPQAEPRP	4.1
RRIRQRPPRLPRPRPRPQALPRP	0.0286
RRIRQRPPRLPRPRPRPQEGPRP	0.0274
RRIRQRPPRLPRPRPRPQEMPRP	-0.119
RRIRQRPPRLPRPRPRPQFAPRP	-0.00983
RRIRQRPPRLPRPRPRPQFIPRP	-0.0627
RRIRQRPPRLPRPRPRPQFSPRP	-0.525
RRIRQRPPRLPRPRPRPQGPPRP	0.189
RRIRQRPPRLPRPRPRPQHAPRP	-0.476
RRIRQRPPRLPRPRPRPQHVPRP	0.00911

Sequence	shrunken log2 fold change
RRIRQRPPRLPRPRPRPQIDPRP	-0.0357
RRIRQRPPRLPRPRPRPQIHPRP	-0.246
RRIRQRPPRLPRPRPRPQKGPRP	0.011
RRIRQRPPRLPRPRPRPQMIPRP	-0.0977
RRIRQRPPRLPRPRPRPQPEPRP	-0.0839
RRIRQRPPRLPRPRPRPQQGPRP	-0.147
RRIRQRPPRLPRPRPRPQSKPRP	-0.574
RRIRQRPPRLPRPRPRPQSLPRP	-0.0818
RRIRQRPPRLPRPRPRPQTEPRP	-0.128
RRIRQRPPRLPRPRPRPQVYPRP	-0.0731
RRIRQRPPRLPRPRPRPQWLPRP	0.0957
RRIRQRPPRLPRPRPRPQYKPRP	-0.314
RRIRQRPPRLPRPRPRPQYPPRP	-0.199
RRIRQRPPRLPRPRPRPRAYPRP	-0.0505
RRIRQRPPRLPRPRPRPRCFPRP	-0.0694
RRIRQRPPRLPRPRPRPRCLPRP	0.176
RRIRQRPPRLPRPRPRPRDPPRP	0.604
RRIRQRPPRLPRPRPRPRDWPRP	1.63
RRIRQRPPRLPRPRPRPRFTPRP	0.184
RRIRQRPPRLPRPRPRPRGIPRP	-0.107
RRIRQRPPRLPRPRPRPRHIPRP	-0.319
RRIRQRPPRLPRPRPRPRHRPRP	0.16
RRIRQRPPRLPRPRPRPRHVPRP	-0.14
RRIRQRPPRLPRPRPRPRISPRP	-0.176
RRIRQRPPRLPRPRPRPRKCPRP	0.158

Sequence	shrunken log2 fold change
RRIRQRPPRLPRPRPRPRKGPRP	0.353
RRIRQRPPRLPRPRPRPRKMPRP	-0.0294
RRIRQRPPRLPRPRPRPRLCPRP	0.423
RRIRQRPPRLPRPRPRPRLGPRP	0.272
RRIRQRPPRLPRPRPRPRMLPRP	-0.0148
RRIRQRPPRLPRPRPRPRNNPRP	-0.173
RRIRQRPPRLPRPRPRPRNPPRP	0.375
RRIRQRPPRLPRPRPRPRPGPRP	0.286
RRIRQRPPRLPRPRPRPRPIPRP	0.385
RRIRQRPPRLPRPRPRPRPMPRP	0.303
RRIRQRPPRLPRPRPRPRPSPRP	0.112
RRIRQRPPRLPRPRPRPRQGPRP	0.0279
RRIRQRPPRLPRPRPRPRRGPRP	0.502
RRIRQRPPRLPRPRPRPRRMPRP	0.455
RRIRQRPPRLPRPRPRPRRVPRP	0.252
RRIRQRPPRLPRPRPRPRTEPRP	2.94
RRIRQRPPRLPRPRPRPRVAPRP	0.337
RRIRQRPPRLPRPRPRPRVDPRP	0.241
RRIRQRPPRLPRPRPRPRWDPRP	0.29
RRIRQRPPRLPRPRPRPRWQPRP	0.0759
RRIRQRPPRLPRPRPRPRYAPRP	0.0355
RRIRQRPPRLPRPRPRPRYFPRP	-0.247
RRIRQRPPRLPRPRPRPRYRPRP	-0.419
RRIRQRPPRLPRPRPRPSALPRP	-0.0016
RRIRQRPPRLPRPRPRPSAPPRP	0.175

Sequence	shrunken log2 fold change
RRIRQRPPRLPRPRPRPSAVPRP	-0.126
RRIRQRPPRLPRPRPRPSCEPRP	0.0555
RRIRQRPPRLPRPRPRPSCHPRP	-0.253
RRIRQRPPRLPRPRPRPSCQPRP	-0.834
RRIRQRPPRLPRPRPRPSCRPRP	-0.28
RRIRQRPPRLPRPRPRPSCYPRP	-0.396
RRIRQRPPRLPRPRPRPSEKPRP	-0.018
RRIRQRPPRLPRPRPRPSGDPRP	-0.00374
RRIRQRPPRLPRPRPRPSGPPRP	-0.0826
RRIRQRPPRLPRPRPRPSGRPRP	0.137
RRIRQRPPRLPRPRPRPSGSPRP	-0.0833
RRIRQRPPRLPRPRPRPSHWPRP	-0.153
RRIRQRPPRLPRPRPRPSIGPRP	-0.268
RRIRQRPPRLPRPRPRPSIPPRP	-0.751
RRIRQRPPRLPRPRPRPSLKPRP	-0.235
RRIRQRPPRLPRPRPRPSLNPRP	-0.216
RRIRQRPPRLPRPRPRPSLPPRP	0.289
RRIRQRPPRLPRPRPRPSPAPRP	0.611
RRIRQRPPRLPRPRPRPSPDPRP	0.262
RRIRQRPPRLPRPRPRPSPWPRP	0.433
RRIRQRPPRLPRPRPRPSQQPRP	0.0129
RRIRQRPPRLPRPRPRPSQSPRP	-0.00144
RRIRQRPPRLPRPRPRPSQWPRP	-0.02
RRIRQRPPRLPRPRPRPSSEPRP	0.0507
RRIRQRPPRLPRPRPRPSSVPRP	0.00784

Sequence	shrunken log2 fold change
RRIRQRPPRLPRPRPRPSTHPRP	-0.465
RRIRQRPPRLPRPRPRPSWVPRP	-0.0385
RRIRQRPPRLPRPRPRPSYDPRP	-0.251
RRIRQRPPRLPRPRPRPSYVPRP	-1.04
RRIRQRPPRLPRPRPRPTACPRP	0.0488
RRIRQRPPRLPRPRPRPTAKPRP	0.151
RRIRQRPPRLPRPRPRPTARPRP	0.219
RRIRQRPPRLPRPRPRPTCCPRP	-0.00785
RRIRQRPPRLPRPRPRPTCKPRP	0.0706
RRIRQRPPRLPRPRPRPTFPPRP	-0.0691
RRIRQRPPRLPRPRPRPTFYPRP	-0.116
RRIRQRPPRLPRPRPRPTGKPRP	-0.00964
RRIRQRPPRLPRPRPRPTHCPRP	0.897
RRIRQRPPRLPRPRPRPTHLPRP	0.205
RRIRQRPPRLPRPRPRPTHSPRP	0.415
RRIRQRPPRLPRPRPRPTHTPRP	0.258
RRIRQRPPRLPRPRPRPTKQPRP	0.045
RRIRQRPPRLPRPRPRPTLHPRP	0.0326
RRIRQRPPRLPRPRPRPTPAPRP	0.953
RRIRQRPPRLPRPRPRPTPFPRP	0.296
RRIRQRPPRLPRPRPRPTQSPRP	0.375
RRIRQRPPRLPRPRPRPTQWPRP	0.571
RRIRQRPPRLPRPRPRPTRMPRP	0.185
RRIRQRPPRLPRPRPRPTRSPRP	0.164
RRIRQRPPRLPRPRPRPTSEPRP	0.015
